Measurements from US20040191826A1.

How the values were obtained:
[1] = molecular target: DPP8/V5/His (human) (UniProt Q6V1X1); assay: cell-based or functional assay
[2] = molecular target: DPPIV/V5/His (human) (UniProt P27487); assay: cell-based or functional assay
Sequence of DPPIV/V5/His (human) (P27487 whole entry, form in doubt): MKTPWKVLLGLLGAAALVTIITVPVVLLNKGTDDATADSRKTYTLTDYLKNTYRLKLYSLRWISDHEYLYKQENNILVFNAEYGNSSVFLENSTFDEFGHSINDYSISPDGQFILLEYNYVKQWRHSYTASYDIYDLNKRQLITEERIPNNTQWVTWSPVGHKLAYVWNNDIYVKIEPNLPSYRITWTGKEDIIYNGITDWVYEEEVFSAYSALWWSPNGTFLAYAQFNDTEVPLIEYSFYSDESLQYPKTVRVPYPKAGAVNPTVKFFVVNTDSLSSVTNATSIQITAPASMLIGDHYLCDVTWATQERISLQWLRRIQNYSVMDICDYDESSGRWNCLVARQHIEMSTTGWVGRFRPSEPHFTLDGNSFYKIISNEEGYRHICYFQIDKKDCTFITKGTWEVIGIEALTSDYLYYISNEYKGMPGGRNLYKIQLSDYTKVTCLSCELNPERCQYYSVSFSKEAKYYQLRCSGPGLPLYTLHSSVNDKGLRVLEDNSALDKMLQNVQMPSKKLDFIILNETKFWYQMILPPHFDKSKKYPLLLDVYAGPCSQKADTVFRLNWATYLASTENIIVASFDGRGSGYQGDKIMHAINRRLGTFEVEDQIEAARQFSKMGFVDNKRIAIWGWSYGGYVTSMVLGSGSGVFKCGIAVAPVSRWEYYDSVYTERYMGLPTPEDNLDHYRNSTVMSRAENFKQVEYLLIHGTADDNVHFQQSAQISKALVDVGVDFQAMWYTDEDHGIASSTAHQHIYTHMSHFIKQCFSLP

Sequence of DPP8/V5/His (human) (Q6V1X1 17-898): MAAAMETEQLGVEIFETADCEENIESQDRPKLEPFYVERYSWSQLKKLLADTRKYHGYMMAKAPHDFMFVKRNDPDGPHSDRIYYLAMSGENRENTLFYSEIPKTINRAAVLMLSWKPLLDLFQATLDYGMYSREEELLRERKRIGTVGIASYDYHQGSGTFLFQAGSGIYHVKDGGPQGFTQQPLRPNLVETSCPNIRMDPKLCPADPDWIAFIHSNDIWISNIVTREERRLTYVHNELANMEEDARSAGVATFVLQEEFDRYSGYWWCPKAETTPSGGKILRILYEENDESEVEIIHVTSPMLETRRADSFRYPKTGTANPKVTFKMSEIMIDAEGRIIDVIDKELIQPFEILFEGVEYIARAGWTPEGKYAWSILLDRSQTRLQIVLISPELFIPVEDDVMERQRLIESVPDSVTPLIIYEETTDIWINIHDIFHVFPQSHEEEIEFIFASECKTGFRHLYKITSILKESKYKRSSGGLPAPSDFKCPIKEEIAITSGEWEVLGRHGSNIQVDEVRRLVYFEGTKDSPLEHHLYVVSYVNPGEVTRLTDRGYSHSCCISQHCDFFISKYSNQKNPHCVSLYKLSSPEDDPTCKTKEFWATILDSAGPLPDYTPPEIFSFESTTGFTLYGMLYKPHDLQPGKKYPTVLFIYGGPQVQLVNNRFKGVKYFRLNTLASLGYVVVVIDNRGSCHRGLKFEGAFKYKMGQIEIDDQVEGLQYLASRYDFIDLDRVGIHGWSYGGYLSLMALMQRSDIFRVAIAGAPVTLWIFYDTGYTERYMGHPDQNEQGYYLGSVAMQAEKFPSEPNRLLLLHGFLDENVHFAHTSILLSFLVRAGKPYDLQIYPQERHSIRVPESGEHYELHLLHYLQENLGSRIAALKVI

- Residual activity (% of control), H-Ala-Pro-pNA hydrolysis, peptide at 10 mM [1]: 51 % of control
- Residual activity (% of control), H-Gly-Pro-pNA hydrolysis, peptide at 10 mM [2]: 67 % of control
Substance: Ala-Pro-Gly (peptide)
